Data on one variant can be found in IntAct's records for PubMed 7486703.

B1: Proto-oncogene tyrosine-protein kinase LCK (Mus musculus), P06240 (parent)
chain: MGCVCSSNPEDDWMENIDVCENCHYPIVPLDSKISLPIRNGSEVRDPLVTYEGSLPPASPLQDNLVIALHSYEPSHDGDLGFEKGEQLRILEQSGEWWKAQSLTTGQEGFIPFNFVAKANSLEPEPWFFKNLSRKDAERQLLAPGNTHGSFLIRESESTAGSFSLSVRDFDQNQGEVVKHYKIRNLDNGGFYISPRITFPGLHDLVRHYTNASDGLCTKLSRPCQTQKPQKPWWEDEWEVPRETLKLVERLGAGQFGEVWMGYYNGHTKVAVKSLKQGSMSPDAFLAEANLMKQLQHPRLVRLYAVVTQEPIYIITEYMENGSLVDFLKTPSGIKLNVNKLLDMAAQIAEGMAFIEEQNYIHRDLRAANILVSDTLSCKIADFGLARLIEDNEYTAREGAKFPIKWTAPEAINYGTFTIKSDVWSFGILLTEIVTHGRIPYPGMTNPEVIQNLERGYRMVRPDNCPEELYHLMMLCWKERPEDRPTFDYLRSVLDDFFTATEGQYQPQP

The variants in this test derive from B1. Conditions: with cd4_mouse Cd4, P06332.
cd4_mouse Cd4, P06332, sequence (P06332 whole entry): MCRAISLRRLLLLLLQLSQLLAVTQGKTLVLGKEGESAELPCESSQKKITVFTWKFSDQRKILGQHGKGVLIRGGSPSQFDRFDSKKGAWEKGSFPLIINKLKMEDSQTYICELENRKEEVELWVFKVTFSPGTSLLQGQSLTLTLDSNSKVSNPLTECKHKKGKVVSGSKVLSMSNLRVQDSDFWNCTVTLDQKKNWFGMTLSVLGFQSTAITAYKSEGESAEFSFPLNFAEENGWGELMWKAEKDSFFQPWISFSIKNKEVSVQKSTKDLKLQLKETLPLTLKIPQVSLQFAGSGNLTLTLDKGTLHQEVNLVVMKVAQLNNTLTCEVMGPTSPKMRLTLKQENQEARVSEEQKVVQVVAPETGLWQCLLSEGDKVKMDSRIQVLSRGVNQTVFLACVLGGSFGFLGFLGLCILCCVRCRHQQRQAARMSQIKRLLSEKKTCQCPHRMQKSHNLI
C20A: the “effect of a mutation on the interaction” value is on record as “decreasing interaction”.
